These results are taken from the supplement of paper PMC10567573.

A short description of the series: protein stability index of a GFP-peptide fusion (GPS, HEK-293T) (PSI 1-6); higher = more stable.
Where [1] appears, read: treatment: DMSO, c terminus: a fixed tail appended.
The mark [2] stands for this setting: treatment: MLN4924 1 uM, 8 h, c terminus: a fixed tail appended.

± gives the standard deviation.
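Also: 24-mer peptide tiles fused after GFP, lentivirally expressed, FACS-sorted into six equal bins by GFP/DsRed ratio, decoded by Illumina sequencing, PSI is the read-weighted mean bin number.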

For the sequence RVVHWYFKLLDKNSSGDIGKKEIK [SMOC2], the protein stability index came to 2.46 ± 0.97 under setting [1] and 2.41 ± 0.4 under setting [2].

For MSHAAEPARDGVEASAEGPRAVFV [TFE3], the protein stability index runs as follows: under setting [1], 4.62 ± 0.13; under setting [2], 4.86 ± 0.09.

In the case of MAVAFLSAQRSKDPNSQVGACIVN [DCTD], the protein stability index came to 2.01 ± 0.16 under setting [1] and 2.27 ± 0.25 under setting [2].

With AAIFKIYLSCLEELMKCQIIYPRQ [TRIP13], the protein stability index was determined as 3.08 ± 0.43 under setting [1] and 3.21 ± 0.17 under setting [2].

As to QLQVPTLRQQCAQVLRNNPDALSD [ELOA2], the protein stability index is, setting by setting: under setting [1], 4.24 ± 0.36; under setting [2], 4.42 ± 0.13.

On to LIDYKSYMDTKLLVARFLEQSSCT [FAM189A2], for which the protein stability index is, setting by setting: under setting [1], 2.38 ± 0.091; under setting [2], 2.25 ± 0.19.

For the sequence HKPLLICSCEWMAAMFGGSFVESA [RHOBTB1], the protein stability index reads like this: under setting [1], 2.72 ± 0.79; under setting [2], 2.46 ± 0.85.

On to PAGEMKPMPLSEGKSILLFGGAAA [BCL2L13], for which the protein stability index reads like this: under setting [1], 3.53 ± 0.15; under setting [2], 3.75 ± 0.27.

With RRNSSSSMSSRLSIYDNVPGSILY [DLC1], the protein stability index was 2.75 ± 0.2 under setting [1] and 2.87 ± 0.45 under setting [2].

For the sequence FKNSLLQKELKKAQMAKAAAEERA [WEE1], the protein stability index runs as follows: under setting [1], 4.37 ± 0.15; under setting [2], 4.34 ± 0.087.

Turning to THFTFKDLHFKMFDVGGQRSERKK [GNAI1], the protein stability index is, setting by setting: under setting [1], 2.83 ± 0.33; under setting [2], 2.93 ± 0.15.

Turning to LSPLSLAQYDSWPHYPEYFQQPAP [LOXL2], the protein stability index amounted to 2.62 ± 0.12 under setting [1] and 2.87 ± 0.18 under setting [2].

For VGKGEILESLQDGAAESPYAYSNG [RAB40C], the protein stability index by setting is: under setting [1], 4.88 ± 0.24; under setting [2], 4.79 ± 0.2.

On to LQLKQELAMLNAVTEDLRLKDWEH [SCARA5], for which the protein stability index under setting [1] amounted to 3.36 ± 0.046 and the protein stability index under setting [2] is 3.34 ± 0.24.

Take IGSTSESKDWEEVVVESMEQDRIP [MIA2]: the protein stability index runs as follows: under setting [1], 5.08 ± 0.32; under setting [2], 5.11 ± 0.26.

In the case of FLDLFRYRVLLGHTLILMFIWFVC [SLC22A15], the protein stability index under setting [1] was determined as 2.73 ± 0.42 and the protein stability index under setting [2] is 2.85 ± 0.71.

On to TPAPMSSAWKTVACGGTRDQLFMQ [MYBL2], for which the protein stability index is, setting by setting: under setting [1], 2.75 ± 0.17; under setting [2], 2.69 ± 0.3.

For the sequence RPQGPQLRQQQHKQNKQVLGYCLL [DNAJC4], the protein stability index runs as follows: under setting [1], 2.52 ± 0.22; under setting [2], 2.38 ± 0.23.

On to NFNPLLVAGGVAVAAIALILGVAF [CEND1], for which the protein stability index under setting [1] worked out at 3.24 ± 0.27 and the protein stability index under setting [2] is 3.47 ± 0.22.

Regarding PGFSSLSLSDQMSVLQSVWMEVLV [ESRRA], the protein stability index is, setting by setting: under setting [1], 2.38 ± 0.33; under setting [2], 2.08 ± 0.27.

On to RLEQEIATYRRLLEGEDAHLSSQQ [KRT16], for which the protein stability index under setting [1] stood at 3.95 ± 0.097 and the protein stability index under setting [2] was determined as 4.21 ± 0.18.

Take RPEITSRAINLLFDIARIERCNQL [ZER1]: the protein stability index is, setting by setting: under setting [1], 2.47 ± 0.55; under setting [2], 2.35 ± 0.59.

Consider ADTNSDRLFTVNDVKVGGSKYGII [DCAF4], for which the protein stability index under setting [1] was found to be 3.01 ± 0.21 and the protein stability index under setting [2] was 3.02 ± 0.28.

As for QLAEENERLKQEIERLTREVEATR [DDIT3], the protein stability index worked out at 5.4 ± 0.26 under setting [1] and 5.51 ± 0.32 under setting [2].

For the sequence VIMQVPERIVVAGNNEDVSFSRPA [MFF], the protein stability index reads like this: under setting [1], 3.4 ± 0.3; under setting [2], 3.47 ± 0.6.

Take LLQKYNMQFLIRSHECKPEGYEFC [PPEF2]: the protein stability index under setting [1] worked out at 2.5 ± 0.84 and the protein stability index under setting [2] came to 2.27 ± 0.49.

Take MKLEKEEFVTLKAIALANSDSMHI [ESRRG]: the protein stability index under setting [1] was 2.46 ± 0.22 and the protein stability index under setting [2] is 2.48 ± 0.28.

Regarding FQSRLPYQYLHYALFKANRLEKAV [P3H4], the protein stability index under setting [1] turned out to be 2.37 ± 0.53 and the protein stability index under setting [2] was 2.31 ± 0.56.

SVDWLSQSSCSGPTHTPRPADFSL [VENTX] came in with a protein stability index under setting [1] of 3.21 ± 0.25 and a protein stability index under setting [2] of 3.28 ± 0.15.

As to IHTGKKPHVCSLCGKAFYKKYRLT [ZNF649], the protein stability index was 2.67 ± 0.42 under setting [1] and 2.92 ± 0.62 under setting [2].

Turning to NQLVGPESIAHIGDVMFTGTADGR [APMAP], the protein stability index stood at 4.77 ± 0.31 under setting [1] and 4.69 ± 0.08 under setting [2].

With QWNAGEKKLTGGANWQPKVAPATW [SNAP91], the protein stability index is, setting by setting: under setting [1], 2.98 ± 0.33; under setting [2], 3.07 ± 0.14.

In turn, KVMIFKSSYSLSDMVSNIELPTRI [MIA2] had a protein stability index under setting [1] of 1.88 ± 0.56 and a protein stability index under setting [2] of 2.17 ± 0.12.

For the sequence DTVTEVTARMEMLIEELYAFMPAR [CBY2], the protein stability index by setting is: under setting [1], 2.38 ± 0.25; under setting [2], 2.47 ± 0.48.

For ALLGYEMVQVACGASHVLALSTER [NEK8], the protein stability index is, setting by setting: under setting [1], 2.5 ± 0.88; under setting [2], 2.12 ± 0.44.

For WGGKAETERGLSRKHIIEGLKASL [KCNAB2], the protein stability index under setting [1] was determined as 2.26 ± 0.29 and the protein stability index under setting [2] stood at 2.02 ± 0.21.

In the case of VKQKISPYFKSNDVVCKNQDELRN [FAN1], the protein stability index runs as follows: under setting [1], 3.84 ± 0.24; under setting [2], 3.64 ± 0.44.

As for EETIASLQMEVCRLKKEEEDRIVT [CEP70], the protein stability index is, setting by setting: under setting [1], 4.65 ± 0.072; under setting [2], 4.8 ± 0.32.

For the sequence SISEKLSSTNFAMKRDVQEGQARC [C8orf76], the protein stability index by setting is: under setting [1], 4.41 ± 0.23; under setting [2], 4.29 ± 0.22.

ARQELLGDRPRWQRLLGEDKFQWL [ANKRD9]: the protein stability index was found to be 2.66 ± 0.46 under setting [1] and 2.98 ± 0.31 under setting [2].

On to DSFLVALDMDDGTLSFIVDGQYMG [SPSB1], for which the protein stability index by setting is: under setting [1], 2.64 ± 0.63; under setting [2], 2.74 ± 0.41.

Consider SALTEGAKEEGGEEVAKAVLEQEE [EPB41L3], for which the protein stability index was 5.63 ± 0.3 under setting [1] and 5.54 ± 0.41 under setting [2].

For the sequence SYRSFHSGGYGQDALGMDPMMEHE [CTNNB1], the protein stability index amounted to 4.29 ± 0.2 under setting [1] and 4.21 ± 0.25 under setting [2].

As for EEEEERWEWSPAGLQSYQQALLRI [SERTAD3], the protein stability index under setting [1] is 3.46 ± 0.29 and the protein stability index under setting [2] is 3.43 ± 0.17.

As to LDNSRSILKRRYYRQHCTLELGSY [CTDNEP1], the protein stability index runs as follows: under setting [1], 2.34 ± 0.45; under setting [2], 2.42 ± 0.31.

Consider PPGIPPLMPGVPPLMPGMPPVMPG [ZNF207], for which the protein stability index is, setting by setting: under setting [1], 3.9 ± 0.23; under setting [2], 4.07 ± 0.21.

The sequence GFHKAGSMLPPVNFSIVPYEKKFD [SPATS1] came in with a protein stability index under setting [1] of 3.64 ± 0.087 and a protein stability index under setting [2] of 3.54 ± 0.054.

VIVMTTRFEEGGRRKCGQYWPLEK [PTPN9]: the protein stability index was 2.12 ± 0.75 under setting [1] and 2.47 ± 0.57 under setting [2].

Regarding ELLSAPPPDLGAQRRHGWNPKDCS [SPSB2], the protein stability index under setting [1] is 3.72 ± 0.14 and the protein stability index under setting [2] stood at 3.48 ± 0.25.

Take TSEESRPRLSQLSVTDVTTSSLRL [TNXB]: the protein stability index was 4.18 ± 0.29 under setting [1] and 4.24 ± 0.26 under setting [2].

Take QSRANGVKYPELVLEHSLDREEEA [PCDHGA10]: the protein stability index came out at 5.29 ± 0.12 under setting [1] and 5.31 ± 0.15 under setting [2].

MATSELSCEVSEENCERREAFWAE [TCAP]: the protein stability index is 5.07 ± 0.079 under setting [1] and 5.08 ± 0.32 under setting [2].

With HLSSPAKNFFKKAAAALFGGKKDK [PLK2], the protein stability index under setting [1] worked out at 2.16 ± 0.49 and the protein stability index under setting [2] amounted to 2.53 ± 0.55.

In the case of PHLMQEHMGTNVIVANTMPTHLSN [HNF4A], the protein stability index came out at 3.83 ± 0.19 under setting [1] and 3.97 ± 0.24 under setting [2].

In the case of PGGPCDSTLGGDIRESDPEQAPAP [TBX6], the protein stability index runs as follows: under setting [1], 5.49 ± 0.16; under setting [2], 5.44 ± 0.29.

For the sequence DDGRLLEYDTVTREVKVLLDQLRF [APMAP], the protein stability index stood at 2.62 ± 0.2 under setting [1] and 3.05 ± 0.38 under setting [2].

In turn, ELAFAEDLVLDEEGARAAGLGELG [ESRRA] returned a protein stability index under setting [1] of 5.24 ± 0.2 and a protein stability index under setting [2] of 5.19 ± 0.27.

LALLNLACMMTITFLPYTFSLMVT [TMEM175]: the protein stability index came to 3.27 ± 0.32 under setting [1] and 3.38 ± 0.27 under setting [2].

Take KVRQLERDNAELENLIRERSQQQE [KRT33B]: the protein stability index reads like this: under setting [1], 5.11 ± 0.3; under setting [2], 5.13 ± 0.28.

In the case of SPSCPEEALAATWEQPWASEVFGP [PXN], the protein stability index was 3.62 ± 0.24 under setting [1] and 3.63 ± 0.14 under setting [2].

In the case of LVVADDKMAAFHGAGLKRYLLTVM [ADAMTS4], the protein stability index runs as follows: under setting [1], 2.72 ± 0.63; under setting [2], 2.35 ± 0.61.

For RISFCADDKTDKRIFTFICKDSES [GULP1], the protein stability index reads like this: under setting [1], 3.52 ± 0.47; under setting [2], 3.47 ± 0.96.

In the case of PTPSTPRPTPQDWLHRRAQILEIL [ADAMTS4], the protein stability index under setting [1] came to 2.97 ± 0.23 and the protein stability index under setting [2] stood at 2.98 ± 0.25.

Consider DVARQLGKNNEFSRLVAGEYLSFF [PSD2], for which the protein stability index is, setting by setting: under setting [1], 2.26 ± 0.16; under setting [2], 2.27 ± 0.44.

Regarding LGGRALMNCLPSNRTLWRLDLAGN [LRRC45], the protein stability index worked out at 2.5 ± 0.41 under setting [1] and 2.32 ± 0.28 under setting [2].

Turning to RQRLQDISSLPLPQSLKNYLQYQ [SPSB4], the protein stability index runs as follows: (treatment: DMSO, c terminus: native) 3.65 ± 0.074; (treatment: MLN4924 1 uM, 8 h, c terminus: native) 3.65 ± 0.31.

As to VSASRDKTLRVWDLKDDGNMMKVL [WSB1], the protein stability index turned out to be 3.2 ± 0.09 under setting [1] and 3.35 ± 0.25 under setting [2].

LPGPKGDDGKLGATGPMGMRGFKG [SCARA5] displayed a protein stability index under setting [1] of 4.7 ± 0.46 and a protein stability index under setting [2] of 4.48 ± 0.2.

For the sequence DVHDDVRLLSDATVEKDESHAGKV [FAM50A], the protein stability index is 5.52 ± 0.26 under setting [1] and 5.43 ± 0.23 under setting [2].

EPGYIDSEIGTSDQIVPEYQEDSD [TRIB1]: the protein stability index runs as follows: under setting [1], 5.69 ± 0.29; under setting [2], 5.62 ± 0.19.

For GVRVNNRFELINIDDLEDDPVVNG [TCF25], the protein stability index by setting is: under setting [1], 4.41 ± 0.16; under setting [2], 4.51 ± 0.18.

Consider SSSSSSSSSSSASSSASSSFSEEG [NFE2L1], for which the protein stability index by setting is: under setting [1], 5.43 ± 0.33; under setting [2], 5.38 ± 0.23.
